In PMC8517210, “Structural and DNA-binding properties of the cytoplasmic domain of Vibrio cholerae transcription factor ToxR”:

Assays:
Conditions in all cases: protein: recombinant; tags: N-terminal His6; chain copies: 2; none in NMR; blunt
cToxR_1-134 [1] = biological target: T1, cToxR_1-134 (Vibrio cholerae, UniProt P15795 1-134); assay: fluorescence anisotropy
cToxR_1-134 [2] = biological target: T1, cToxR_1-134; assay: NMR CSP titration; mean as printed; T111 14.21 ± 0.31, L99 14.78 ± 6.62
cToxR_1-134 [3] = biological target: T1, cToxR_1-134; assay: NMR CSP titration; mean as printed; T111 0.15 ± 4e-9, L99 0.63 ± 1e-8
cToxR_1-134 [4] = biological target: T1, cToxR_1-134; assay: NMR CSP titration; mean as printed; T111 6.82 ± 1.07, L99 5.16 ± 0.46
cToxR_1-134 [5] = biological target: T1, cToxR_1-134; assay: NMR CSP titration; mean as printed; T111 28.26 ± 5.73, L99 27.88 ± 3.01

T1 sequence (P15795 1-134): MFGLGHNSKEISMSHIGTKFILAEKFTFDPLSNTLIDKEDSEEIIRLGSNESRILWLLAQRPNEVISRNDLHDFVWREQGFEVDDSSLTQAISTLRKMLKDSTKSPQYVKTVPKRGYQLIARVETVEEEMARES

| Binder | Kd (cToxR_1-134 [1]) | Kd (cToxR_1-134 [2]) | Kd (cToxR_1-134 [3]) | Kd (cToxR_1-134 [4]) | Kd (cToxR_1-134 [5]) |
| --- | --- | --- | --- | --- | --- |
| ompT (dsDNA) DNA 1: TTTTATGGTATTTGA DNA 2: TCAAATACCATAAAA | 12.8 ± 1.27 µM | 14.5 µM | – | – | – |
| toxT (dsDNA) DNA 1: CTCAAAAAACATAAAA DNA 2: TTTTATGTTTTTTGAG | 0.66 ± 0.1 µM | – | 0.35 µM | – | – |
| ompU (dsDNA) DNA 1: ATTTATATCATTTTA DNA 2: TAAAATGATATAAAT | 5.49 ± 0.91 µM | – | – | 5.99 µM | – |
| ctx (dsDNA) DNA 1: GATTTTTGATTTT DNA 2: AAAATCAAAAATC | 9.71 ± 0.84 µM | – | – | – | 28.1 µM |
